Patent publication US8436159B2, “Glyphosate resistant class I 5-endolpyruvylshikimate-3-phosphate synthase (EPSPS)” (Monsanto Technology LLC, priority 2003, dated 2013)

Legend:
[1] = system: E. coli EPSPS variant, alanine for the glycine at position 96 (G96A); details: read-out: apparent Km for PEP; glyphosate-resistant isolate; cited from earlier work
E. coli EPSPS, native = details: read-out: apparent Km for PEP; native enzyme; cited from earlier work
[2] = target: T1, maize (Zea mays) class I EPSPS, wild type (WT), pMON70461, DNA SEQ ID NO:3 (Zea mays, UniProt O24566); test: EPSPS steady-state kinetics, wild-type maize EPSPS; format: biochemical
T1 construct: pMON70461
T1 sequence (O24566 with tags, fused parts or gaps): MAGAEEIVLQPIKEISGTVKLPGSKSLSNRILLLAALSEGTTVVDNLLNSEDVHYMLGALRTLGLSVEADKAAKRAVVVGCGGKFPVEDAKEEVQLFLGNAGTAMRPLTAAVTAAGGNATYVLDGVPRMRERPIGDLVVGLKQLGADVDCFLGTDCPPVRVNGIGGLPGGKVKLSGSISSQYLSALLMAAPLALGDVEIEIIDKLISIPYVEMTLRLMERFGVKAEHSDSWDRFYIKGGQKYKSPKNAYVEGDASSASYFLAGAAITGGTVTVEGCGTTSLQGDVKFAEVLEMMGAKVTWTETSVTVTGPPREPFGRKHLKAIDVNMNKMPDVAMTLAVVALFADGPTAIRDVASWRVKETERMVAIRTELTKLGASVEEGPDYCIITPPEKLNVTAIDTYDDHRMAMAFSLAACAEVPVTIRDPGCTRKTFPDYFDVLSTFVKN
Protocol: The wild type and variant EPSPS coding sequences were cloned into a pET-19b base vector (Novagen, Madison, Wis.). The plant (maize) class I EPSPS variants so created were assigned pMON plasmid numbers (Table 2). The variant EPSPS proteins were purified from the E. coli host using the protocols outlined in the pET system manual, 9th edition (Novagen) or by the following method. A single colony or a few microliters from a glycerol stock was inoculated into 4 mL LB medium containing 0.1 mg/mL carbenicillin antibiotic. The culture was incubated with shaking at 37 C for 4 hours. The cultures were stored at 4° C. overnight. The following morning, 1 mL of the overnight culture was used to inoculate 100 mL of fresh LB medium containing 0.1 mg/mL carbenicillin. The cultures were incubated with shaking at 37 C for 4-5 hours, then the cultures were placed at 4° C. for 5-10 minutes. The cultures were then induced with IPTG (1 mM final concentration) and incubated with shaking at 30 C for 4 hours or 20° C. overnight. The cells were harvested by centrifugation at 7000 rpm for 20 minutes at 4° C. The supernatant was removed and the cells were frozen at −70° C. until further use. The proteins were extracted by resuspending the cell pellet in BugBuster reagent (Novagen) using 5 mL reagent per gram of cells. Benzonase (125 Units) was added to the resuspension and the cell suspension was then incubated on a rotating mixer for 20 minutes at room temperature. The cell debris was removed by centrifugation at 10,000 rpm for 20 minutes at room temperature. The supernatant was passed through a 0.45 μm syringe-end filter and transferred to a fresh tube. A pre-packed columns containing 1.25 mL of His-Bind resin was equilibrated with 10 mL of 5 mM imidazole, 0.5 M NaCl, 20 mM Tris-HCl pH 7.9 (1× Binding Buffer). The column was then loaded with the prepared cell extract. After the cell extract had drained, the column was then washed with 10 mL of 1× Binding Buffer, followed with 10 mL of 60 mM imidazole, 0.5 M NaCl, 20 mM Tris-HCl pH 7.9 (1× Wash Buffer). […]

[3] = substrate: C=C(OP(=O)(O)O)C(=O)O; test: EPSPS steady-state kinetics, TIPA variant; format: biochemical, maize (Zea mays); details: other: pH 7.0, 1 mM shikimate-3-phosphate, Table 2
Source text: The double variants of the present invention were made using pMON58452 (FIG. 5) as the template. This pMON58452 EPSPS gene template contains the maize EPSPS double variant T102I, P106T (TIPT) that was constructed by mutagenesis of pMON70467 with the mutagenesis primers mEmut-9-U and mEmut-10-L. The various mutagenesis primer sequences were designed and then were synthesized by Invitrogen Corp., Custom Primers and used in combination in a PCR to create the variant EPSPS coding sequences. The PCR was set up in a 50 μl reaction in the following manner: dH2O 38 μl; 2 mM dNTP 1 μL; 10× buffer 5 μL; pMON58452 1 μL (10 ng); primer-U 2 μL; primer-L 2 μL; pfu Turbo enzyme 1 μL. PCR was carried out on a MJ Research PTC-200 thermal cycler using the following program: Step 1—94° C. for 30 seconds; Step 2—94° C. for 30 seconds; Step 3—55° C. for 1 minute; Step 4—68° C. for 14 minute; Step 5—go to step 2, 16 times; Step 6—End. At the end of the PCR, 1 μl of the restriction enzyme DpnI was added to each 50 μl of PCR reaction and the mixture was incubated at 37° C. for 1 hour. The proline (106) amino acid codon of pMON58452 was substituted in subsequent steps to provide additional variants that include TWO (primer P106G-U, SEQ ID NO:14 and -L, SEQ ID NO:15), TIPA (primer P106A-U, SEQ ID NO:16 and -L, SEQ ID NO:17), TIPV (primer P106V-U, SEQ ID NO:18 and -L, SEQ ID NO:19), TIPL (primer P106L-U, SEQ ID NO:20 and -L, SEQ ID NO:21), TIPI (primer P106I-U, SEQ ID NO:22 and -L, SEQ ID NO:23), TIPM (primer P106M-U, SEQ ID NO:24 and -L, SEQ ID NO:25), and TIPC (primer P106C-U, SEQ ID NO:26 and -L, SEQ ID NO:27). The double variants of the gene encoding the EPSPS protein were generated using the PCR conditions described above.
The wild type and variant EPSPS coding sequences were cloned into a pET-19b base vector (Novagen, Madison, Wis.). […] The variant EPSPS proteins were purified from the E. coli host using the protocols outlined in the pET system manual, 9th edition (Novagen) or by the following method. […]

[4] = substrate: C=C(OP(=O)(O)O)C(=O)O; test: EPSPS steady-state kinetics, TIPS variant; format: biochemical, maize (Zea mays); details: other: pH 7.0, 1 mM shikimate-3-phosphate
Source text: Mutations were made using plant EPSPS DNA coding sequence template as an example of class I EPSPSs. […] All the variants were made using the PCR-based QuickChange™ Site-directed Mutagenesis Kit (Stratagene, La Jolla, Calif., Cat. No. 200518) following the manufactures instructions. The DNA sequence of each mutagenesis primer was designed, and then ordered from Invitrogen Corp., Custom Primers (Carlsbad, Calif.). Mutagenesis of a maize wild-type DNA molecule (SEQ ID NO:3) encoding the EPSPS enzyme was performed using pMON70461 (FIG. 3) as the template. pMON70461 contains the unmodified wild-type maize EPSPS coding sequence. […] The single EPSPS variants were created by mutagenesis of the maize wild-type EPSPS DNA coding sequence as controls for measuring the efficacy of the double variant EPSPSs.
The wild type and variant EPSPS coding sequences were cloned into a pET-19b base vector (Novagen, Madison, Wis.). […] The variant EPSPS proteins were purified from the E. coli host using the protocols outlined in the pET system manual, 9th edition (Novagen) or by the following method. […] Protein concentration was determined using Bio-Rad protein assay (Bio-Rad Laboratories, CA). […] The samples were read at OD595 after ˜5 minutes using a spectraMAX 250 plate reader (Molecular Devices Corporation, Sunnyvale, Calif.) and compared to the standard curve. […]

[5] = substrate: C=C(OP(=O)(O)O)C(=O)O; test: EPSPS steady-state kinetics, TIPV variant; format: biochemical, maize (Zea mays); details: other: pH 7.0, 1 mM shikimate-3-phosphate
Protocol: (§1) The variant EPSPS proteins were purified from the E. coli host using the protocols outlined in the pET system manual, 9th edition (Novagen) or by the following method. A single colony or a few microliters from a glycerol stock was inoculated into 4 mL LB medium containing 0.1 mg/mL carbenicillin antibiotic. The culture was incubated with shaking at 37 C for 4 hours. The cultures were stored at 4° C. overnight. The following morning, 1 mL of the overnight culture was used to inoculate 100 mL of fresh LB medium containing 0.1 mg/mL carbenicillin. The cultures were incubated with shaking at 37 C for 4-5 hours, then the cultures were placed at 4° C. for 5-10 minutes. The cultures were then induced with IPTG (1 mM final concentration) and incubated with shaking at 30 C for 4 hours or 20° C. overnight. The cells were harvested by centrifugation at 7000 rpm for 20 minutes at 4° C. The supernatant was removed and the cells were frozen at −70° C. until further use. The proteins were extracted by resuspending the cell pellet in BugBuster reagent (Novagen) using 5 mL reagent per gram of cells. Benzonase (125 Units) was added to the resuspension and the cell suspension was then incubated on a rotating mixer for 20 minutes at room temperature. The cell debris was removed by centrifugation at 10,000 rpm for 20 minutes at room temperature. […]

[6] = substrate: C=C(OP(=O)(O)O)C(=O)O; test: EPSPS steady-state kinetics, TIPM variant; format: biochemical, maize (Zea mays); details: other: pH 7.0, 1 mM shikimate-3-phosphate
Protocol: as §1

[7] = substrate: C=C(OP(=O)(O)O)C(=O)O; test: EPSPS steady-state kinetics, TIPG variant; format: biochemical, maize (Zea mays); details: other: pH 7.0, 1 mM shikimate-3-phosphate
Source text: (§2) The double variants of the present invention were made using pMON58452 (FIG. 5) as the template. This pMON58452 EPSPS gene template contains the maize EPSPS double variant T102I, P106T (TIPT) that was constructed by mutagenesis of pMON70467 with the mutagenesis primers mEmut-9-U and mEmut-10-L. The various mutagenesis primer sequences were designed and then were synthesized by Invitrogen Corp., Custom Primers and used in combination in a PCR to create the variant EPSPS coding sequences. The PCR was set up in a 50 μl reaction in the following manner: dH2O 38 μl; 2 mM dNTP 1 μL; 10× buffer 5 μL; pMON58452 1 μL (10 ng); primer-U 2 μL; primer-L 2 μL; pfu Turbo enzyme 1 μL. PCR was carried out on a MJ Research PTC-200 thermal cycler using the following program: Step 1—94° C. for 30 seconds; Step 2—94° C. for 30 seconds; Step 3—55° C. for 1 minute; Step 4—68° C. for 14 minute; Step 5—go to step 2, 16 times; Step 6—End. At the end of the PCR, 1 μl of the restriction enzyme DpnI was added to each 50 μl of PCR reaction and the mixture was incubated at 37° C. for 1 hour. […]

[8] = substrate: C=C(OP(=O)(O)O)C(=O)O; test: EPSPS steady-state kinetics, TIPI variant; format: biochemical, maize (Zea mays); details: other: pH 7.0, 1 mM shikimate-3-phosphate
Source text: as §2

[9] = substrate: C=C(OP(=O)(O)O)C(=O)O; test: EPSPS steady-state kinetics, TIPT variant; format: biochemical, maize (Zea mays); details: other: pH 7.0, 1 mM shikimate-3-phosphate
Source text: as §2

For C=C(OP(=O)(O)O)C(=O)O [PEP, phosphoenolpyruvate], the Km [1] is listed as 220 µM, the Km (E. coli EPSPS, native) is listed as 10 µM and the kcat ([2]; Table 5) is listed as 8.8 ± 0.5 s⁻¹. It also gave a Km ([2]; pH 7.0, 1 mM shikimate-3-phosphate, Table 2, read-out: Km-PEP) of 27 ± 4 µM.

B1: maize (Zea mays) class I EPSPS variant TIPA (T102I, P106A), pMON42481, ZmTIPA SEQ ID NO:39 (Zea mays; P106A/T102I) (protein)
chain: AGAEEIVLQPIKEISGTVKLPGSKSLSNRILLLAALSEGTTVVDNLLNSEDVHYMLGALRTLGLSVEADKAAKRAVVVGCGGKFPVEDAKEEVQLFLGNAGIAMRALTAAVTAAGGNATYVLDGVPRMRERPIGDLVVGLKQLGADVDCFLGTDCPPVRVNGIGGLPGGKVKLSGSISSQYLSALLMAAPLALGDVEIEIIDKLISIPYVEMTLRLMERFGVKAEHSDSWDRFYIKGGQKYKSPKNAYVEGDASSASYFLAGAAITGGTVTVEGCGTTSLQGDVKFAEVLEMMGAKVTWTETSVTVTGPPREPFGRKHLKAIDVNMNKMPDVAMTLAVVALFADGPTAIRDVASWRVKETERMVAIRTELTKLGASVEEGPDYCIITPPEKLNVTAIDTYDDHRMAMAFSLAACAEVPVTIRDPGCTRKTFPDYFDVLSTFVKN
notes: pMON42481
With B1 the Km [3] was 10.2 ± 1.1 µM, the kcat [3] was 2.1 ± 0.1 s⁻¹ and the kcat/Km [3] was 0.2 µM^−1s^−1.

B2: maize (Zea mays) class I EPSPS variant TIPS (T102I, P106S), pMON70462 (Zea mays; P106S/T102I) (protein)
chain: AGAEEIVLQPIKEISGTVKLPGSKSLSNRILLLAALSEGTTVVDNLLNSEDVHYMLGALRTLGLSVEADKAAKRAVVVGCGGKFPVEDAKEEVQLFLGNAGIAMRSLTAAVTAAGGNATYVLDGVPRMRERPIGDLVVGLKQLGADVDCFLGTDCPPVRVNGIGGLPGGKVKLSGSISSQYLSALLMAAPLALGDVEIEIIDKLISIPYVEMTLRLMERFGVKAEHSDSWDRFYIKGGQKYKSPKNAYVEGDASSASYFLAGAAITGGTVTVEGCGTTSLQGDVKFAEVLEMMGAKVTWTETSVTVTGPPREPFGRKHLKAIDVNMNKMPDVAMTLAVVALFADGPTAIRDVASWRVKETERMVAIRTELTKLGASVEEGPDYCIITPPEKLNVTAIDTYDDHRMAMAFSLAACAEVPVTIRDPGCTRKTFPDYFDVLSTFVKN
notes: pMON70462
For B2, the Km [4] was 10.6 ± 1.6 µM.

B3: maize (Zea mays) class I EPSPS variant TIPV (T102I, P106V), pMON42482 (Zea mays; P106V/T102I) (protein)
chain: AGAEEIVLQPIKEISGTVKLPGSKSLSNRILLLAALSEGTTVVDNLLNSEDVHYMLGALRTLGLSVEADKAAKRAVVVGCGGKFPVEDAKEEVQLFLGNAGIAMRVLTAAVTAAGGNATYVLDGVPRMRERPIGDLVVGLKQLGADVDCFLGTDCPPVRVNGIGGLPGGKVKLSGSISSQYLSALLMAAPLALGDVEIEIIDKLISIPYVEMTLRLMERFGVKAEHSDSWDRFYIKGGQKYKSPKNAYVEGDASSASYFLAGAAITGGTVTVEGCGTTSLQGDVKFAEVLEMMGAKVTWTETSVTVTGPPREPFGRKHLKAIDVNMNKMPDVAMTLAVVALFADGPTAIRDVASWRVKETERMVAIRTELTKLGASVEEGPDYCIITPPEKLNVTAIDTYDDHRMAMAFSLAACAEVPVTIRDPGCTRKTFPDYFDVLSTFVKN
notes: pMON42482
For B3, the Km [5] was 109.3 ± 12.9 µM.

B4: maize (Zea mays) class I EPSPS variant TIPM (T102I, P106M), pMON42484 (Zea mays; P106M/T102I) (protein)
chain: AGAEEIVLQPIKEISGTVKLPGSKSLSNRILLLAALSEGTTVVDNLLNSEDVHYMLGALRTLGLSVEADKAAKRAVVVGCGGKFPVEDAKEEVQLFLGNAGIAMRMLTAAVTAAGGNATYVLDGVPRMRERPIGDLVVGLKQLGADVDCFLGTDCPPVRVNGIGGLPGGKVKLSGSISSQYLSALLMAAPLALGDVEIEIIDKLISIPYVEMTLRLMERFGVKAEHSDSWDRFYIKGGQKYKSPKNAYVEGDASSASYFLAGAAITGGTVTVEGCGTTSLQGDVKFAEVLEMMGAKVTWTETSVTVTGPPREPFGRKHLKAIDVNMNKMPDVAMTLAVVALFADGPTAIRDVASWRVKETERMVAIRTELTKLGASVEEGPDYCIITPPEKLNVTAIDTYDDHRMAMAFSLAACAEVPVTIRDPGCTRKTFPDYFDVLSTFVKN
notes: pMON42484
For B4, the Km [6] was 143.3 ± 12.6 µM.

B5: maize (Zea mays) class I EPSPS variant TIPG (T102I, P106G), pMON42480 (Zea mays; P106G/T102I) (protein)
chain: AGAEEIVLQPIKEISGTVKLPGSKSLSNRILLLAALSEGTTVVDNLLNSEDVHYMLGALRTLGLSVEADKAAKRAVVVGCGGKFPVEDAKEEVQLFLGNAGIAMRGLTAAVTAAGGNATYVLDGVPRMRERPIGDLVVGLKQLGADVDCFLGTDCPPVRVNGIGGLPGGKVKLSGSISSQYLSALLMAAPLALGDVEIEIIDKLISIPYVEMTLRLMERFGVKAEHSDSWDRFYIKGGQKYKSPKNAYVEGDASSASYFLAGAAITGGTVTVEGCGTTSLQGDVKFAEVLEMMGAKVTWTETSVTVTGPPREPFGRKHLKAIDVNMNKMPDVAMTLAVVALFADGPTAIRDVASWRVKETERMVAIRTELTKLGASVEEGPDYCIITPPEKLNVTAIDTYDDHRMAMAFSLAACAEVPVTIRDPGCTRKTFPDYFDVLSTFVKN
notes: pMON42480
Work on B5 yielded a Km [7] of 23.0 ± 3.7 µM.

B6: maize (Zea mays) class I EPSPS variant TIPI (T102I, P106I), pMON42486 (Zea mays; P106I/T102I) (protein)
chain: AGAEEIVLQPIKEISGTVKLPGSKSLSNRILLLAALSEGTTVVDNLLNSEDVHYMLGALRTLGLSVEADKAAKRAVVVGCGGKFPVEDAKEEVQLFLGNAGIAMRILTAAVTAAGGNATYVLDGVPRMRERPIGDLVVGLKQLGADVDCFLGTDCPPVRVNGIGGLPGGKVKLSGSISSQYLSALLMAAPLALGDVEIEIIDKLISIPYVEMTLRLMERFGVKAEHSDSWDRFYIKGGQKYKSPKNAYVEGDASSASYFLAGAAITGGTVTVEGCGTTSLQGDVKFAEVLEMMGAKVTWTETSVTVTGPPREPFGRKHLKAIDVNMNKMPDVAMTLAVVALFADGPTAIRDVASWRVKETERMVAIRTELTKLGASVEEGPDYCIITPPEKLNVTAIDTYDDHRMAMAFSLAACAEVPVTIRDPGCTRKTFPDYFDVLSTFVKN
notes: pMON42486
For B6, the Km [8] was 60.3 ± 2.8 µM.

B7: maize (Zea mays) class I EPSPS variant TIPT (T102I, P106T), pMON58452, ZmTIPT SEQ ID NO:38 (Zea mays; P106T/T102I) (protein)
chain: AGAEEIVLQPIKEISGTVKLPGSKSLSNRILLLAALSEGTTVVDNLLNSEDVHYMLGALRTLGLSVEADKAAKRAVVVGCGGKFPVEDAKEEVQLFLGNAGIAMRTLTAAVTAAGGNATYVLDGVPRMRERPIGDLVVGLKQLGADVDCFLGTDCPPVRVNGIGGLPGGKVKLSGSISSQYLSALLMAAPLALGDVEIEIIDKLISIPYVEMTLRLMERFGVKAEHSDSWDRFYIKGGQKYKSPKNAYVEGDASSASYFLAGAAITGGTVTVEGCGTTSLQGDVKFAEVLEMMGAKVTWTETSVTVTGPPREPFGRKHLKAIDVNMNKMPDVAMTLAVVALFADGPTAIRDVASWRVKETERMVAIRTELTKLGASVEEGPDYCIITPPEKLNVTAIDTYDDHRMAMAFSLAACAEVPVTIRDPGCTRKTFPDYFDVLSTFVKN
notes: pMON58452
With B7 the Km [9] was 11.2 ± 1.8 µM.
